How the values were obtained:
COBRA HA J4 = COBRA HA J4 (COBRA J4, designed from influenza A …); test: BLI; conditions: both partners purified
COBRA HA TJ2 = COBRA HA TJ2 (COBRA TJ2, designed from influenza A …); test: BLI; conditions: both partners purified

Binder | Kd (COBRA HA J4) [nM] | koff (COBRA HA J4) [s⁻¹] | kon (COBRA HA J4) [M⁻¹ s⁻¹] | Kd (COBRA HA TJ2) [nM] | koff (COBRA HA TJ2) [s⁻¹] | kon (COBRA HA TJ2) [M⁻¹ s⁻¹]
mAb TJ5-13 (antibody, V domains shown) V domain 1: QVQLVQSGAEVKKPGSSVKVSCEASGDTFTTYSGINWVRQAPGQGLEWMGGVLPNFGSPNYAQRFQGRITITVDRSTSLVHMELTNLRSDDTAVYYCTETGAYNSVGYFPYFQFRGQGTLVSVSS V domain 2: QSVLTQPPSVSGAPGQRVTISCTGSSSNIGADYDVHWYQQLPGTAPKLLIFGNNNRPSGVPDRFSGSKSGTSASLAITGLQAEDEADYYCQSFDKSLSGSFVFGTGTKVTGQ | 0.26 | 3.06e-05 | 120000 | 0.05 | 8.68e-06 | 159000
mAb TJ5-1 (antibody, V domains shown) VH: EVQLVQSGAEVKKPGASVKVSCKASGYTFTGFYLHWVRQAPGQGLEWMGWINPHSGDTDFAQKFQGKVTMTRDTSSNTVYMDVNRLTSDDTAVYYCVKNDIVLGMGVWGQGTTVIVSS VL: QSVLTQPPSVSGAPGQRVTISCTGSSSNIGAGYNVYWFQQLPPTAPKLLNYGDNNRPSGVPDRFSASKSGTSASLAITGLQAEDEAEYYCQSYDSSLNAYVFGTGTKVTVL | 0.23 | 6.67e-05 | 284000 | 5.64 | 0.00348 | 230000
mAb #1664 (antibody, V domains shown) VH: EVQVMQSGAEARMTGATVKISCKASGYTFSDYFLHWVKQAPGKGLEWMGLVDVDNGEVRYAEKFQGRVTITADTSTETAYLEMTTVTSGDTAVYYCASTTPRGGNPSVYNYFFVDVWGKGTTVTVSS VL: QPVLTQSSSASASLGSSVKLTCTLSSGHDNYIIAWHQQQPGKAPRYLMQVGAGGTYNKGSGVPHRFSGSSSGADRYLTISNLQSDDEADYYCETWDSKTVFGGGTTLTVL | 15.2 | 0.000454 | 30100 | 0.45 | 5.44e-05 | 121000
